Where a SMILES comes first, the peptide text is derived from it. Bridges are numbered along the chain shown (N, C = ends).
B1: Syn-Ang-VEGFR-6: fused protein synergibody SAITAng-2-2 × DTN6VEGFR-2-1, peptide at C-terminal of heavy chain (protein)
heavy (part 1 of 2): QVQLQQSGPELVKPGASVKMSCKASGYTFTDYVISWVKQRTGQGLEWIGEIYPGSGSTYYNEKFKGKASLTADKSSNTAYMQLSSLTSADSAVYFCVRSRGDYYAMDYWGQGTSVTVSS
heavy (part 2 of 2): TGSDDLCYTFPCMHY
light: DIQMTQSPSSLSASLGGKVTITCKASQDINNYITWYQHKPGKGPRLLIHYTSTLQPGIPSRFSGSGSGRDYSFSISNLEPEDIATYYCLQYDNLLTFGGGTKLEIK
modifications: left off: a dimerising Fc or GST
notes: fused protein synergibody SAITAng-2-2 × DTN6VEGFR-2-1, peptide at C-terminal of heavy chain
B2: Syn-Ang-VEGFR-8: fused protein synergibody SAITAng-2-2 × DTN9VEGFR-2-3, peptide at C-terminal of heavy chain (protein)
heavy (part 1 of 2): QVQLQQSGPELVKPGASVKMSCKASGYTFTDYVISWVKQRTGQGLEWIGEIYPGSGSTYYNEKFKGKASLTADKSSNTAYMQLSSLTSADSAVYFCVRSRGDYYAMDYWGQGTSVTVSS
heavy (part 2 of 2): EAGAYWCKAWGLSPCLVT
light: DIQMTQSPSSLSASLGGKVTITCKASQDINNYITWYQHKPGKGPRLLIHYTSTLQPGIPSRFSGSGSGRDYSFSISNLEPEDIATYYCLQYDNLLTFGGGTKLEIK
modifications: left off: a dimerising Fc or GST
notes: fused protein synergibody SAITAng-2-2 × DTN9VEGFR-2-3, peptide at C-terminal of heavy chain
B3: Syn-Ang-VEGFR-9: fused protein synergibody SAITAng-2-2 × DTN10VEGFR-2-4, peptide at C-terminal of heavy chain (protein)
heavy (part 1 of 2): QVQLQQSGPELVKPGASVKMSCKASGYTFTDYVISWVKQRTGQGLEWIGEIYPGSGSTYYNEKFKGKASLTADKSSNTAYMQLSSLTSADSAVYFCVRSRGDYYAMDYWGQGTSVTVSS
heavy (part 2 of 2): TGSGRMCDGSGPPTNCWFT
light: DIQMTQSPSSLSASLGGKVTITCKASQDINNYITWYQHKPGKGPRLLIHYTSTLQPGIPSRFSGSGSGRDYSFSISNLEPEDIATYYCLQYDNLLTFGGGTKLEIK
modifications: left off: a dimerising Fc or GST
notes: fused protein synergibody SAITAng-2-2 × DTN10VEGFR-2-4, peptide at C-terminal of heavy chain
B4: Syn-Ang-VEGFR-7: fused protein synergibody SAITAng-2-2 × DTN8VEGFR-2-2, peptide at C-terminal of heavy chain (protein)
heavy (part 1 of 2): QVQLQQSGPELVKPGASVKMSCKASGYTFTDYVISWVKQRTGQGLEWIGEIYPGSGSTYYNEKFKGKASLTADKSSNTAYMQLSSLTSADSAVYFCVRSRGDYYAMDYWGQGTSVTVSS
heavy (part 2 of 2): EAGKETCGYEWQYCPRP
light: DIQMTQSPSSLSASLGGKVTITCKASQDINNYITWYQHKPGKGPRLLIHYTSTLQPGIPSRFSGSGSGRDYSFSISNLEPEDIATYYCLQYDNLLTFGGGTKLEIK
modifications: left off: a dimerising Fc or GST
notes: fused protein synergibody SAITAng-2-2 × DTN8VEGFR-2-2, peptide at C-terminal of heavy chain
B5: Syn-Ang-VEGFR-10: fused protein synergibody SAITAng-2-2 × DTN11VEGFR-2-5, peptide at C-terminal of heavy chain (protein)
heavy (part 1 of 2): QVQLQQSGPELVKPGASVKMSCKASGYTFTDYVISWVKQRTGQGLEWIGEIYPGSGSTYYNEKFKGKASLTADKSSNTAYMQLSSLTSADSAVYFCVRSRGDYYAMDYWGQGTSVTVSS
heavy (part 2 of 2): PGSQGYCHLNMRYQWICDSE
light: DIQMTQSPSSLSASLGGKVTITCKASQDINNYITWYQHKPGKGPRLLIHYTSTLQPGIPSRFSGSGSGRDYSFSISNLEPEDIATYYCLQYDNLLTFGGGTKLEIK
modifications: left off: a dimerising Fc or GST
notes: fused protein synergibody SAITAng-2-2 × DTN11VEGFR-2-5, peptide at C-terminal of heavy chain
B6: Syn-Ang-VEGFR-11: fused protein synergibody SAITAng-2-3 × DTN6VEGFR-2-1, peptide at C-terminal of heavy chain (protein)
heavy (part 1 of 2): DVQLVESGGGLVQPGGSRKLSCAASGFTFSSFGMHWVRQAPEKGLEWVAYISSDSSTIYYADTVKGRFTISRDNPKNTLFLQMTSLRSEDTAMYYCAREGGYDDYYAMDYWGQGTSVTVSS
heavy (part 2 of 2): TGSDDLCYTFPCMHY
light: DIQMTQSPASQSASLGESVTITCLASQTIGTWLAWYQQKPGKSPQLLIYAATSLADGVPSRFSGSGSGTKFSFKISSLQAEDFVSYYCQQLYSIPLTFGGGTKLEIK
modifications: left off: a dimerising Fc or GST
notes: fused protein synergibody SAITAng-2-3 × DTN6VEGFR-2-1, peptide at C-terminal of heavy chain
B7: Syn-Ang-VEGFR-12: fused protein synergibody SAITAng-2-3 × DTN8VEGFR-2-2, peptide at C-terminal of heavy chain (protein)
heavy (part 1 of 2): DVQLVESGGGLVQPGGSRKLSCAASGFTFSSFGMHWVRQAPEKGLEWVAYISSDSSTIYYADTVKGRFTISRDNPKNTLFLQMTSLRSEDTAMYYCAREGGYDDYYAMDYWGQGTSVTVSS
heavy (part 2 of 2): EAGKETCGYEWQYCPRP
light: DIQMTQSPASQSASLGESVTITCLASQTIGTWLAWYQQKPGKSPQLLIYAATSLADGVPSRFSGSGSGTKFSFKISSLQAEDFVSYYCQQLYSIPLTFGGGTKLEIK
modifications: left off: a dimerising Fc or GST
notes: fused protein synergibody SAITAng-2-3 × DTN8VEGFR-2-2, peptide at C-terminal of heavy chain

test system: HUVEC; experiment: Cell-based functional assay, endothelial cell tube formation (BD BioCoat Angiogenesis System); parameters: species or system human; settings: 5 μM fused protein synergibody, 18 hours; unrelated control group 12,227 ± 1,232
Protocol: Chimeric antibodies may be screened by functional assays such as cell-based assay for inhibition activity. In this example, BD BioCoat™ Angiogenesis System-Endothelial Cell Tube Formation (BD Biosciences) is used. BD Falcon 96-well Black/Clear plate coated with BD Matrigel Matrix that had been stored at −20° C. is slowly melted at 4° C. for 6 hours, and the mat cover of the plate is removed inside a sterile clean bench. Then it is left at 37° C. , 5% CO2 for 30 minutes so that the Matrigel™ Matrix would form polymers. Then it is made into a suspension by treating HUVEC, cultured on a petridish containing EGM-2 MV (Lonza) medium added with 10% fetal bovine serum to 70 to 80% confluence, with 0.5% Trypsin-EDTA (Gibco). Then it is resuspended in a culture medium containing 10% fetal bovine serum to a cell concentration of 4×10^5 cells/ml. At this time, 5 μM of each anti-Ang-2 chimeric antibodies expressed and purified in Section 5 above are also added and resuspended. Then 50 μl (about 2×10^4 cells) of each of the suspension is added to each well of the plate and incubated at 37° C. , 5% CO2 for 18 hours. Then the medium is removed and each well is washed twice with 100 μl of Hanks' balanced salt solution (HBSS, Invitrogen) ensuring that the tubes of the cells formed on BD Matrigel™ Matrix are not damaged. 50 μl of calcein AM (BD sciences) dissolved in HBSS at the concentration of 8 μg/ml is added to each well. The plate is then left to react at 37° C., 5% CO2 for 30 minutes and the calcein AM (BD sciences) solution is removed and washed twice with HBSS. Lastly, an image of the length of the entire tube of HUVEC formed on BD Matrigel™ Matrix is obtained on a fluorescent microscope and analyzed by using MetaMorph® software (Universal Imaging Corporation™, http://www.moleculardevices.com).
The peptides synthesized in Section 6A above are screened by cell-based functional assay for inhibition activity. The method described in Example 1, Section 7 is used, except that 5 μM synthesized peptides are added instead of anti-Ang-2 antibodies.
The fused protein synergibodies prepared in Section 1 above are screened using cell-based functional assay for inhibition activity. The method described in Example 1, Section 7 is used, except that, in this example, 5 μM of fused protein synergibodies are added instead of anti-Ang-2 antibodies.

Molecule	Length of entire tube of HUVEC (2 × 10^4 cells) (pixels)
B1	6,157 ± 1,141 pixels
B2	6,244 ± 935 pixels
B3	6,055 ± 779 pixels
B4	5,935 ± 995 pixels
B5	5,898 ± 1,037 pixels
B6	3,925 ± 675 pixels
B7	3,899 ± 923 pixels

same assay, conditions: 5 μM synthesized peptide, 18 hours; unrelated control group 12,227 ± 1,232

Molecule	Length of the entire tube of HUVEC (2 × 10^4 cells) (pixels)
C[C@H](NC(=O)[C@@H](N)CCC(=O)O)C(=O)NCC(=O)N[C@@H](CCCCN)C(=O)N[C@@H](CCC(=O)O)C(=O)N[C@H](C(=O)N[C@H]1CSSC[C@@H](C(=O)N2CCC[C@H]2C(=O)N[C@@H](CCCNC(=N)N)C(=O)N2CCC[C@H]2C(=O)O)NC(=O)[C@H](Cc2ccc(O)cc2)NC(=O)[C@H](CCC(N)=O)NC(=O)[C@H](Cc2c[nH]c3ccccc23)NC(=O)[C@H](CCC(=O)O)NC(=O)[C@H](Cc2ccc(O)cc2)NC(=O)CNC1=O)[C@@H](C)O [DTN8VEGFR-2-2] (H-EAGKETCGYEWQYCPRP-OH; disulfide 7-14; N-terminus and C-terminus assumed)	10,891 ± 1,014 pixels
CSCC[C@H](NC(=O)[C@H](CCCNC(=N)N)NC(=O)CNC(=O)[C@H](CO)NC(=O)CNC(=O)[C@@H](N)[C@@H](C)O)C(=O)N[C@H]1CSSC[C@@H](C(=O)N[C@@H](Cc2c[nH]c3ccccc23)C(=O)N[C@@H](Cc2ccccc2)C(=O)N[C@H](C(=O)O)[C@@H](C)O)NC(=O)[C@H](CC(N)=O)NC(=O)[C@H]([C@@H](C)O)NC(=O)[C@@H]2CCCN2C(=O)[C@@H]2CCCN2C(=O)CNC(=O)[C@H](CO)NC(=O)CNC(=O)[C@H](CC(=O)O)NC1=O [DTN10VEGFR-2-4] (H-TGSGRMCDGSGPPTNCWFT-OH; disulfide 7-16; N-terminus and C-terminus assumed)	10,773 ± 992 pixels
CSCC[C@H](NC(=O)[C@@H]1CSSC[C@H](NC(=O)[C@H](CC(C)C)NC(=O)[C@H](CC(=O)O)NC(=O)[C@H](CC(=O)O)NC(=O)[C@H](CO)NC(=O)CNC(=O)[C@@H](N)[C@@H](C)O)C(=O)N[C@@H](Cc2ccc(O)cc2)C(=O)N[C@@H]([C@@H](C)O)C(=O)N[C@@H](Cc2ccccc2)C(=O)N2CCC[C@H]2C(=O)N1)C(=O)N[C@@H](Cc1c[nH]cn1)C(=O)N[C@@H](Cc1ccc(O)cc1)C(=O)O [DTN6VEGFR-2-1] (H-TGSDDLCYTFPCMHY-OH; disulfide 7-12; N-terminus and C-terminus assumed)	11,093 ± 1,308 pixels
CC(C)C[C@@H]1NC(=O)CNC(=O)[C@H](Cc2c[nH]c3ccccc23)NC(=O)[C@H](C)NC(=O)[C@H](CCCCN)NC(=O)[C@@H](NC(=O)[C@H](Cc2c[nH]c3ccccc23)NC(=O)[C@H](Cc2ccc(O)cc2)NC(=O)[C@H](C)NC(=O)CNC(=O)[C@H](C)NC(=O)[C@@H](N)CCC(=O)O)CSSC[C@@H](C(=O)N[C@@H](CC(C)C)C(=O)N[C@H](C(=O)N[C@H](C(=O)O)[C@@H](C)O)C(C)C)NC(=O)[C@@H]2CCCN2C(=O)[C@H](CO)NC1=O [DTN9VEGFR-2-3] (H-EAGAYWCKAWGLSPCLVT-OH; disulfide 7-15; N-terminus and C-terminus assumed)	12,101 ± 869 pixels
CC[C@H](C)[C@@H]1NC(=O)[C@H](Cc2c[nH]c3ccccc23)NC(=O)[C@H](CCC(N)=O)NC(=O)[C@H](Cc2ccc(O)cc2)NC(=O)[C@H](CCCNC(=N)N)NC(=O)[C@H](CCSC)NC(=O)[C@H](CC(N)=O)NC(=O)[C@H](CC(C)C)NC(=O)[C@H](Cc2c[nH]cn2)NC(=O)[C@@H](NC(=O)[C@H](Cc2ccc(O)cc2)NC(=O)CNC(=O)[C@H](CCC(N)=O)NC(=O)[C@H](CO)NC(=O)CNC(=O)[C@@H]2CCCN2)CSSC[C@@H](C(=O)N[C@@H](CC(=O)O)C(=O)N[C@@H](CO)C(=O)N[C@@H](CCC(=O)O)C(=O)O)NC1=O [DTN11VEGFR-2-5] (H-PGSQGYCHLNMRYQWICDSE-OH; disulfide 7-17; N-terminus and C-terminus assumed)	11,896 ± 1,159 pixels

Source: patent publication US20110076723A1, “ANTIBODY-PEPTIDE FUSED SYNERGIBODY” (SAMSUNG ELECTRONICS CO., LTD., priority 2008, published 2011)
